Positions count from the first letter of the chain named.
B1: DK5 (antibody, V domains shown)
VH: QVQLQQPGAELVKPGASVKMSCKASGYTFTSYSMHWVKQTPGQGLEWIGAIYPGNGDTSYNQKFKGKATLTADKSSSTAYMQLSSLTSEDSAVYYCARDYHYDGYYVTLDYWGQGTTLTVSS
VL: DIQMTQSPSSLSASLGERVSLTCRASQEISGYLSWLQQKPDGTIKRLIYAASTLDSGVPKRFSGSRSGSDYSLTISSLESEDFADYYCLQYASYPWTFGGGTKLEIK
B2: DK7 (antibody, V domains shown)
VH: B1 VH
VL: B1 VL
B3: DK10 (antibody, V domains shown)
VH: B1 VH with N61T, S84N
VL: B1 VL
B4: DK6 (antibody, V domains shown)
VH: B1 VH with A9T, M34I
VL: B1 VL
B5: DK2 (antibody, V domains shown)
VH: QVQLQQPGAELVKPGASVKMSCKASGYTFISYSMHWVKQTPGQGLEWIGAIYPGNGDTSYTQKFKGKATLTADKSSTTAYMQLSSLTSEDSAVYYCARDHGNYVLDYWGQGTTLTVSS
VL: DIVMTQSHKFMSTSVGDRVSITCKASQDVGTAVAWYQQKPGQSPKLLIYWASTRHTGVPDRFTGSGSGTDFTLTISNVQSEDLADYFCQQYSSYPWTFGGGTKLEIK
B6: DK11 (antibody, V domains shown)
VH: EVQLQQSGPELVKPGASVKISCKASGYSFTGYFMNWVKQSHGKSLEWIGRINPYNGDTFYNQKFKGKATLTVDKSSSTAHMELLSLTSEDSAVYYCGRGYLDYWGQGTTLTVSS
VL: DIVMTQSHKFMSTSVGDRVSITCKASQDVSTAVAWYQQKPGQSPKLLIFSASYRYTGVPDRFTGSGSGTDFTFTISSVQAEDLAVYYCQEHYSNPYTFGGGTKLEIK
B7: DK14 (antibody, V domains shown)
VH: QVQLQQPGAELVKPGASVKLSCKASGYTFISYWMHWVKQRPGQGLEWIGEIDPSDSYTNSNQKFKGKATLTVDKSSSTAYMQLSSLTSEDSAVYYCARSELWAMDYWGQGTSVTVSS
VL: DIVMTQAAFSNPVTLGTSASISCRSSKSLLHSHGITYLYWYLQKPGQSPQLLIYQMSNLASGVPDRFSSSGSGTDFTLRISRVEAEDVGVYYCAQNLELPWTFGGGTKLEIR
B8: DK15 (antibody, V domains shown)
VH: QVQLQQPGAEFVMPGASVKMSCKASGYTFTDYWMHWVKQRPGQGLEWIGAIDTSDTYTRYNQKFKDKATLTVDESSSTAYMQLSSLTSEDSAVYYCARFLYYYGNPTFDYWGQGTTLTVSS
VL: DVQITQSPSYLAASPGETITINCRASKSISKYLAWYQEKPGKTNKLLIYSGSTLQSGIPSRFSGSGSGTDFTLTISSLEPEDFAMYYCQQHNEYPLTFGAGTKLELK

What was measured:
[1] = target: T1, SARS-CoV2病毒表面SPIKE蛋白的RBD结构域 (SARS-CoV2, UniProt P0DTC2 319-541); assay: Biacore (SPR), recombinant antibody against RBD
[2] = target: T1, SARS-CoV2病毒表面SPIKE蛋白的RBD结构域; assay: Biacore blocking experiment, antibody of the hybridoma clone
SARS-CoV2病毒的囊膜蛋白SPIKE = SARS-CoV2病毒的囊膜蛋白SPIKE (SARS-CoV2, UniProt P0DTC2 14-1273); assay: cell-based or functional assay

Binder	Kd [1]	阻断率 [2]	EC50(nM), 阻断假病毒感染 (GFP阳性细胞) (SARS-CoV2病毒的囊膜蛋白SPIKE)	EC50(μg/mL), 阻断假病毒感染 (GFP阳性细胞) (SARS-CoV2病毒的囊膜蛋白SPIKE)
B1	< 1 nM	≥ 60%	0.1 nM	0.015 µg/mL
B2	–	–	0.47 nM	0.071 µg/mL
B3	–	–	1.63 nM	0.245 µg/mL
B4	< 1 nM	≥ 60%	0.47 nM	0.071 µg/mL
B5	< 1 nM	≥ 60%	0.083 nM	0.012 µg/mL
B6	–	–	0.34 nM	0.051 µg/mL
B7	–	–	0.41 nM	0.062 µg/mL
B8	–	–	1.27 nM	0.191 µg/mL

Reference: patent CN111978395A (UNIV SICHUAN, dated 2020)
